B1: PGT-125 monoclonal antibody (antibody, V domains shown)
VH: QSQLQESGPRLVEASETLSLTCNVSGESTGACTYFWGWVRQAPGKGLEWIGSLSHCQSFWGSGWTFHNPSLKSRLTISLDTPKNQVFLKLTSLTAADTATYYCARFDGEVLVYNHWPKPAWVDLWGRGIPVTVSS
VL: QSALTQPPSASGSPGQSITISCNGTATNFVSWYQQFPDKAPKLIIFGVDKRPPGVPDRFSGSRSGTTASLTVSRLQTDDEAVYYCGSLVGNWDVIFGGGTTLTVL
B2: PGT-126 monoclonal antibody (antibody, V domains shown)
VH: QPQLQESGPGLVEASETLSLTCTVSGDSTAACDYFWGWVRQPPGKGLEWIGGLSHCAGYYNTGWTYHNPSLKSRLTISLDTPKNQVFLKLNSVTAADTAIYYCARFDGEVLVYHDWPKPAWVDLWGRGTLVTVSS
VL: QSALTQPPSASGSPGQSISISCTGTSNRFVSWYQQHPGKAPKLVIYGVNKRPSGVPDRFSGSKSGNTASLTVSGLQTDDEAVYYCSSLVGNWDVIFGGGTKLTVL
B3: PGT-136 monoclonal antibody (antibody, V domains shown)
VH: QLQLQESGPGLVKPSETLSLTCTVSGGSMRGTDWGENDFHYGWIRQSSAKGLEWIGSIHWRGRTTHYKTSFRSRATLSIDTSNNRFSLTFSFVTAADTAVYYCARHKYHDIFRVVPVAGWFDPWGQGLLVTVSS
VL: EIVMTQSPPTLSVSPGETATLSCRASQNVKNNLAWYQLKPGQAPRLLIFDASSRAGGIPDRFSGSGYGTDFTLTVNSVQSEDFGDYFCQQYEEWPRTFGQGTKVDIK
B4: PGT-135 monoclonal antibody (antibody, V domains shown)
VH: QLQMQESGPGLVKPSETLSLSCTVSGDSIRGGEWGDKDYHWGWVRHSAGKGLEWIGSIHWRGTTHYKESLRRRVSMSIDTSRNWFSLRLASVTAADTAVYFCARHRHHDVFMLVPIAGWFDVWGPGVQVTVSS
VL: EIVMTQSPDTLSVSPGETVTLSCRASQNINKNLAWYQYKPGQSPRLVIFETYSKIAAFPARFVASGSGTEFTLTINNMQSEDVAVYYCQQYEEWPRTFGQGTKVDIK
B5: PGT-123 monoclonal antibody (antibody, V domains shown)
VH: QLHLQESGPGLVKPPETLSLTCSVSGASINDAYWSWIRQSPGKRPEWVGYVHHSGDTNYNPSLKRRVTFSLDTAKNEVSLKLVDLTAADSATYFCARALHGKRIYGIVALGELFTYFYMDVWGKGTAVTVSS
VL: SSMSVSPGETAKISCGKESIGSRAVQWYQQKPGQPPSLIIYNNQDRPAGVPERFSASPDFRPGTTATLTITNVDAEDEADYYCHIYDARGGTNWVFDRGTTLTVL

These binders were tested against HIV-1 92TH021 envelope glycoprotein (Env) on pseudovirus (HIV-1) (assay: cell-based or functional assay).
For B1, the IC50, pseudovirus neutralization was 0.0066 µg/mL. Work on B2 yielded an IC50, pseudovirus neutralization of 0.115 µg/mL. B3 was tested, and the IC50, pseudovirus neutralization was over 10 µg/mL. Binder B4 has an IC50, pseudovirus neutralization of over 10 µg/mL. For B5, the IC50, pseudovirus neutralization was over 10 µg/mL.

These binders were tested against HIV-1 92UG005 envelope glycoprotein (Env) on pseudovirus (HIV-1) (assay: cell-based or functional assay).
B1 showed an IC50, pseudovirus neutralization of over 10 µg/mL. Work on B2 yielded an IC50, pseudovirus neutralization of 0.0181 µg/mL. B3 gave an IC50, pseudovirus neutralization of over 10 µg/mL. B4 gave an IC50, pseudovirus neutralization of over 10 µg/mL. B5 was tested, and the IC50, pseudovirus neutralization was 2.49 µg/mL.

The binders below were run against HIV-1 92UG024 envelope glycoprotein (Env) on pseudovirus (HIV-1) (assay: cell-based or functional assay).
In the case of B1, the IC50, pseudovirus neutralization is reported as over 10 µg/mL. B2 showed an IC50, pseudovirus neutralization of over 10 µg/mL. For B3, the IC50, pseudovirus neutralization was 0.0915 µg/mL. For B4, the IC50, pseudovirus neutralization was 0.0139 µg/mL. Binder B5 has an IC50, pseudovirus neutralization of over 10 µg/mL.

These binders were tested against HIV-1 CMU02 envelope glycoprotein (Env) on pseudovirus (HIV-1) (assay: cell-based or functional assay).
B1 gave an IC50, pseudovirus neutralization of over 10 µg/mL. In the case of B2, the IC50, pseudovirus neutralization is reported as over 10 µg/mL. B3 gave an IC50, pseudovirus neutralization of over 10 µg/mL. Binder B4 has an IC50, pseudovirus neutralization of over 10 µg/mL. B5 showed an IC50, pseudovirus neutralization of over 10 µg/mL.

The binders below were run against HIV-1 MGRM-AG-005 envelope glycoprotein (Env) on pseudovirus (HIV-1) (assay: cell-based or functional assay).
B1 showed an IC50, pseudovirus neutralization of over 10 µg/mL. B2 gave an IC50, pseudovirus neutralization of 1.35 µg/mL. In the case of B3, the IC50, pseudovirus neutralization is reported as over 10 µg/mL. With B4 the IC50, pseudovirus neutralization was over 10 µg/mL. In the case of B5, the IC50, pseudovirus neutralization is reported as 0.104 µg/mL.

What follows are binders tested against HIV-1 MGRM-D-001 envelope glycoprotein (Env) on pseudovirus (HIV-1) (assay: cell-based or functional assay).
B1 showed an IC50, pseudovirus neutralization of 2.31 µg/mL. Binder B2 has an IC50, pseudovirus neutralization of 0.0639 µg/mL. Binder B3 has an IC50, pseudovirus neutralization of over 10 µg/mL. In the case of B4, the IC50, pseudovirus neutralization is reported as over 10 µg/mL. B5 was tested, and the IC50, pseudovirus neutralization was 0.215 µg/mL.

Each binder was assayed against HIV-1 MGRM-D-018 envelope glycoprotein (Env) on pseudovirus (HIV-1) (assay: cell-based or functional assay).
For B1, the IC50, pseudovirus neutralization was 0.0382 µg/mL. B2 was tested, and the IC50, pseudovirus neutralization was 0.0093 µg/mL. Work on B3 yielded an IC50, pseudovirus neutralization of over 10 µg/mL. B4 was tested, and the IC50, pseudovirus neutralization was 0.0433 µg/mL. With B5 the IC50, pseudovirus neutralization was 0.0047 µg/mL.

Each binder was assayed against aMLV envelope protein on pseudovirus (negative control virus) (assay: cell-based or functional assay).
Binder B1 has an IC50, pseudovirus neutralization of over 10 µg/mL. B2 was tested, and the IC50, pseudovirus neutralization was over 10 µg/mL. Work on B3 yielded an IC50, pseudovirus neutralization of over 10 µg/mL. B4 was tested, and the IC50, pseudovirus neutralization was over 10 µg/mL. Binder B5 has an IC50, pseudovirus neutralization of over 10 µg/mL.

— US20200024330A1
